Experimental data as given in the Human Domainome abundance scans (Beltran et al. 2025).

B1: Zinc finger homeobox protein 4, residues 2562 to 2617; numbered along this chain, Q86UP3 (parent)
chain: RLRTTITPEQLEILYEKYLLDSNPTRKMLDHIAREVGLKKRVVQVWFQNTRARERK

Variants of: B1
Test: abundance fitness (aPCA) (normalised: wild type 0, dead -1); higher = more abundant; growth selection in yeast, the domain comes from the species named
Conditions: Homo sapiens

Abundance fitness, by site and new letter:
R34: K 0.004 | C -0.223 | L -0.011 | Q 0.107 | F -0.101 | M -0.053 | T -0.02 | G 0.123 | N 0.161 | P -0.638 | I -0.43 | Y 0.245 | W -0.139 | E 0.244 | H -0.162 | S 0.17 | D -0.536 | A 0.195
R26: L 0.24 | E 0.171 | Y 0.867 | M -0.092 | I 0.917 | S 0.142 | N 1.41 | H -0.017 | T 0.52 | D 0.285 | K 0.1 | V 0.223 | P -0.236 | G -0.143 | Q 0.369 | W 0.237
L20: A -0.103 | E -0.092 | R -0.162 | V -0.02 | M -0.112 | C -0.236 | D -0.333 | W -0.124 | K 0.035 | F -0.062 | S -0.193 | G -0.114 | T -0.19 | N -0.122 | P -0.652 | I -0.079 | Q -0.182
D21: P -0.769 | T -0.458 | R -0.796 | I -0.406 | M -0.673 | K -0.727 | L -0.474 | V -0.465 | Q -0.352 | N -0.188 | Y -0.5 | S -0.433 | G -0.433 | E 0.078 | A -0.435 | F -0.302 | C -0.378 | W -0.505
K27: E 0.147 | L -0.019 | F -0.265 | N -0.112 | R -0.475 | D 0.478 | P 0.128 | I -0.245 | Y -0.142 | W -0.302 | H 0.083 | S 0.074 | G 0.074 | Q 0.082 | V 0.099 | A 0.169 | M -0.206 | C -0.096 | T -0.147
A33: S -0.158 | G -0.344 | C -0.003 | T -0.331 | E -0.352 | D -0.526 | P -0.563 | R -0.541 | W -0.696 | L -0.732 | Q -0.669 | H -0.86
P24: N -0.754 | E -0.976 | V -0.82 | F -0.503 | R -0.925 | L -0.639 | G -0.852 | K -0.948 | C -0.777 | S -0.968 | T -0.947 | I -0.415 | Q -0.929 | M -0.687 | A -0.861 | D -0.679 | H -0.847
H31: Q 0.176 | L -0.112 | I 0.205 | E 0.426 | D 0.05 | S 0.233 | C 0.052 | W -0.119 | F -0.266 | A 0.042 | M -0.169 | N -0.335 | T 0.206 | Y -0.201 | R -0.129 | K 0.146 | G -0.004
K17: S -0.164 | R -0.258 | T -0.109 | V -0.552 | Q -0.033 | M -0.024 | P -0.334 | N 0.008 | Y 0.767 | H -0.441 | G -0.513 | E -0.081 | W -0.58 | L -0.508
V36: H -0.418 | K -0.726 | M -0.134 | I -0.398 | A -0.103 | S 0.019 | G -0.812 | P -0.649 | L -0.121 | N -0.415 | C -0.223 | W -0.638 | F -0.623 | D -0.27 | E -0.671 | Y -0.586 | R -1.03
Y18: K -0.544 | R -0.659 | P -0.842 | I -0.246 | L -0.439 | M -0.856 | S -0.975 | W -0.31 | C -0.817 | T -0.874 | A -1.06 | F 0.425 | Q -0.839 | V -0.764 | E -0.943 | N -0.59 | H -0.773 | D -1.13
L19: Q -0.214 | E -0.136 | A -0.094 | C -0.084 | T -0.175 | S -0.034 | Y -0.153 | D -0.098 | F -0.065 | K -0.154 | V -0.055 | P -0.897 | G -0.023 | R -0.112 | N -0.091 | W -0.229 | I 0.196 | M -0.131
I32: A -0.786 | T -0.405 | E -0.998 | Q -1.24 | C -0.518 | K -0.796 | V -0.204 | M -0.366 | R -1.08 | F -0.377 | W -0.23 | S -1.27 | L -0.15 | Y -0.208 | G -0.945
D30: S -0.062 | F -0.372 | P -0.579 | G -0.052 | Q -0.102 | L -0.296 | M -0.352 | C -0.431 | V -0.292 | W -0.173 | T 0.002 | E -0.088 | H -0.269 | A -0.108 | Y 0.003 | I -0.056 | R -0.144
T25: H -0.596 | I -0.526 | E 0.095 | Q -0.476 | N -0.148 | A -0.384 | M -0.364 | L -0.546 | R -0.72 | P -0.147 | S -0.056 | D -0.193 | C 0.181 | G -0.331
N23: T -0.213 | E -0.086 | R 0.017 | C -0.738 | D -0.039 | G -0.121 | H -0.302 | Y -0.062 | P -0.425 | M -0.105 | F 0.301 | L -0.238 | S -0.1 | Q 0.013 | K -0.054 | W -0.208 | V -0.356 | A -0.064 | I -0.091
L29: T -0.228 | P -0.752 | M -0.429 | Q -0.124 | H -0.95 | E 0.155 | Y -0.239 | V -0.024 | I -0.033 | D -0.721 | G -0.94 | W -0.004 | F -0.049 | R -0.346 | K -0.621 | S -0.498
E35: F -0.564 | C -0.393 | G -0.258 | L -0.25 | Q -0.283 | R -0.654 | N -0.358 | D -0.278 | T -0.254 | V -0.306 | H -0.302 | Y -0.493 | A -0.235 | W -0.597 | I -0.163 | M -0.279 | S -0.158
M28: Y -0.406 | F -0.591 | I -0.101 | H -0.305 | C -0.067 | Q -0.067 | L -0.102 | S -0.152 | R -0.297 | W -0.577 | N -0.409 | P -1.06 | V -0.119 | T -0.003 | D 0.242 | G -0.108 | K -0.582 | E -0.003
S22: R -0.358 | D 0.035 | P -0.402 | E 0.248 | L -0.56 | C -0.075 | F -0.168 | W -0.461 | N -0.429 | G -0.059 | M -0.155 | K -0.305 | T -0.078 | I -0.436 | V -0.403 | Y -0.772 | H -0.289
